Article doi:10.1101/2024.04.08.588565v2
Where a chain is given by its changes, count along the chain named. Numbers in names are those of the source.

B1: SrIRED (Streptosporangium roseum DSM 43021; P203A/T241G) (protein)
chain: MRDTDVTVLGLGLMGQALAGAFLKDGHATTVWNRSEGKAGQLAEQGAVLASSARDAAEASPLVVVCVSDHAAVRAVLDPLGDVLAGRVLVNLTSGTSEQARATAEWAAERGITYLDGAIMAIPQVVGTADAFLLYSGPEAAYEAHEPTLRSLGAGTTYLGADHGLSSLYDVALLGIMWGTLNSFLHGAALLGTAKVEATTFAAFANRWIEAVTGFVSAYAGQVDQGAYPALDATIDTHVAGVDHLIHESEAAGVNTELPRLVRTLADRALAGGQGGLGYAAMIEQFRSPSA
B2: SrIRED (Streptosporangium roseum DSM 43021) (protein)
chain: B1 chain with A203P, G241T
B3: SrIRED (Streptosporangium roseum DSM 43021; T241S) (protein)
chain: B1 chain with A203P, G241S
B4: SrIRED (Streptosporangium roseum DSM 43021; T241A) (protein)
chain: B1 chain with A203P, G241A
B5: SrIRED (Streptosporangium roseum DSM 43021; E146V) (protein)
chain: B1 chain with E146V, A203P, G241T

Substrate: O=C1CCCCC1
Experiment: purified protein
Assay type: biochemical, Streptosporangium roseum
Settings: 30 mM cyclopropylamine, 0.5 mM NADPH

Protein | Km (Tris pH 8, 25 °C) | kcat (Tris pH 8, 25 °C) | Km (100 mM Tris pH 8.0, 25 °C) | kcat (100 mM Tris pH 8.0, 25 °C)
B1 | 5100 ± 400 µM | 49.3 ± 1.5 s⁻¹ | – | –
B2 | – | – | 3520 ± 440 µM | 2.11 ± 0.08 s⁻¹
B3 | 2310 ± 510 µM | 6.02 ± 0.39 s⁻¹ | – | –
B4 | 2310 ± 330 µM | 5.77 ± 0.24 s⁻¹ | – | –
B5 | 2400 ± 300 µM | 1.7 ± 0.1 s⁻¹ | – | –
